# Patent US20120149645A1, “COMPOSITIONS AND MODULATION OF MYOCYTE ENHANCER FACTOR 2 (MEF2)” (EMORY UNIVERSITY, priority 2010, published 2012)
# Columns and labels:
# [1] = tested on: SN4741 cells; experiment: Mitochondrial functional assays (ATP, H2O2, membrane potential); format: cell-based, mouse; details: over-expression in SN4741 cells
# Description: (A) Requirement of mitochondrial MEF2D for complex I activity. […] Control indicates the control vector group. (B) Over-expression of ND6 rescued complex I activity reduced by Mt2Ddn. Control indicates the control vector group. (C) Measurement of various complex activities. […] Control indicates the control vector group. (D) Effects of over-expression of Mt2D or Mt2Ddn on mitochondrial function. Mt2Ddn reduced cellular ATP level and elevated H2O2 production in SN4741 cells (n=4; *p<0.05; **P<0.01). Control indicates the control vector group.
# Mitochondrial complex I activity was evaluated initially by blue native-polyacrylamide gel electrophoresis (BN-PAGE) and in-gel activity staining. This assay measures total complex I activity. Rotenone sensitive complex I activity and activities of other mitochondrial complexes were further measured by methods described by Antoni et al., J Biol Chem, 1998, 273:14210-14217. Briefly, parallel assays were performed to measure complex I activity at 340 nm using 2,3-dimethoxy-5-methyl-6-n-decyl-1,4-benzoquinone (DB) (50 μM) as acceptor and NADH (0.8 mM) as donor, in 50 mM Tris (pH 8.0) buffer supplemented with 5 mg/ml BSA either without or with the addition of 4 μM rotenone, which gave total and rotenone insensitive complex I activities, respectively. The difference in value between the two provided a quantified measure of the rotenone-sensitive activity. Mitochondrial membrane potential was detected using a kit (cat. no. 280002) from Stratagene following the procedures provided by the manufacturer. The fluorescent dye JC-1 (5,5′,6,6′-tetrachloro-1,1′,3,3′-tetraethylbenzimidazolyl carbocyanine iodide) stains mitochondria red in a membrane potential dependent manner. Briefly, cells were seeded in 96-well plates at 4×10^4 cells/well with 100 μl culture medium and incubated at 33° C. with 5% CO2. After treatment, 10 μl/well of premixed JC-1 staining solution was added, and the cells were incubated for an additional 30 min under the same conditions. After thorough washes, 100 μl assay buffer was added to each well. Fluorescence signal was detected with excitation and emission at 520 nm and 590 nm, respectively, on a multi-well plate reader (Bio-Tek). Cellular ATP and H202 were measured by Bioluminescent Somatic Cell ATP Assay Kit (Sigma) and Hydrogen Peroxide Assay Kit (Cayman), respectively.
# [2] = tested on: human mtDNA fragment containing mitochondrial L-strand promoter (LSP) and ND6 gene; experiment: In vitro mtDNA L-strand transcription assay; format: biochemical
# Description: (A) Mitochondria-targeting MEF2D (Mt2D) and mitochondria-targeting dominant-negative MEF2D (Mt2Ddn), which lacks the transactivation domain (TAD). […] Control indicates the control vector group. (C) Effects of Mt2D or Mt2Ddn on ND6 expression in SN4741 cells. Over-expression of Mt2Ddn in SN4741 cells reduced ND6 but not PPAR-γ coactivator 1 (PGC1) expression by western blotting (n=4, **p<0.01). Control indicates the control vector group. (D) Effects of over-expression of Mt2D or Mt2Ddn on mRNA levels of mitochondria encoded genes. […] Control indicates the control vector group. (E) Effects of Mt2D or Mt2Ddn on mtDNA L-strand transcription initiation in vitro (n=3; **P<0.01). A human mtDNA fragment containing mitochondrial L-strand promoter (LSP) and ND6 gene was used in the in vitro transcription assay. […] (F) Effects of Mt2D or Mt2Ddn on mtDNA de novo transcription in vivo (n=3; **P<0.01). Control (−) is without primers. Control (+) indicates the control vector group.
# [3] = tested on: nuclear MEF2; experiment: MEF2 luciferase reporter assay; format: cell-based; details: co-transfected with MEF2 luciferase reporter
# Description: (§1) Control indicates the group co-tranfected with control vector.
# MEF2 luciferase reporter assay was done as described Wang et al., J Biol Chem, 2005, 280:16705-16713. Briefly, cells were transiently transfected with various constructs with MEF2 luciferase reporter plasmid (WT, reporter with wild type MEF2 DNA binding sites; mt, reporter with the MEF2 DNA binding sites mutated) using Lipofectimane 2000 (Invitrogen) following procedures provided by the manufacturer. A β-galactosidase expression plasmid was used to determine the efficiency in each transfection. The total amount of DNA for each transfection was kept constant by using control vectors. Cell lysates were analyzed for luciferase and β-galactosidase activity according to the manufacturer's instructions (Roche, cat. no. 11669893001).
# [4] = tested on: SN4741 cells; experiment: Subcellular localization of over-expressed MEF2D constructs; format: cell-based, mouse; details: over-expressed in SN4741 cells
# Description: (A) Lack of mitochondrial localization by ΔN30MEF2D. […] VDAC, PARP and c-Raf are Mt, Nu and Cy markers, respectively. Control indicates the control vector group. (B) Immunocytochemistry analysis of mitochondrial localization of transfected Flag-MEF2D. […] Experiments were repeated four times. (C, D) Requirement of mtHsp70 for mitochondria-targeting of MEF2D (n=4; **p<0.01). Control indicates untreated. […]. Knocking down mouse mtHsp70 by siRNA reduced MEF2D level in purified mitochondria from SN4741 cells (C). […] MnSOD is a known mtHsp70-imported mitochondrial matrix protein.
# (A) Diagrams of Mt2DVP16 and MtND6. Mt2DVP16 was constructed by fusion of transactivation domain (TAD) of VP16 with DNA-binding domain of MEF2D and a mitochondria-targeting sequence (Mito). […] (C) Over-expression of Mt2DVP16 attenuated MEF2D siRNA-induced reduction of ND6 expression (n=3, **P<0.01).
# as §1
# SN4741 cells or primary midbrain DA neurons were plated on glass slides in 24-well plates. Localizations of endogenous and exogenous MEF2D were visualized on a Zeiss LSM5 PASCAL confocal microscope. […] Quantification of colocalization of signals was done using “Colocalization Analysis” program of software Image Pro (Media Cybernetics). […]
molecule,measurement,setting,value
"Mt2Ddn: Mitochondria-targeting dominant-negative MEF2D: mouse MEF2D 1-131aa with mitochondria-targeting signal, lacks the transactivation domain (protein, UniProt Q63943 1-131, looked up, fragment, mitochondria-targeting signal added) MGRKKIQIQRITDERNRQVTFTKRKFGLMKKAYELSVLCDCEIALIIFNHSNKLFQYASTDMDKVLLKYTEYNEPHESRTNADIIETLRKKGFNGCDSPEPDGEDSLEQSPLLEDKYRRASEELDGLFRRY",cellular ATP level,[1],clear reduction
same,hydrogen peroxide production by mitochondria,[1],significantly increased
same,mitochondrial membrane potential,[1]; JC-1,did not significantly alter
same,level of L-strand promoter (LSP) transcripts,[2],reduces
same,nuclear MEF2 activity (MEF2 reporter),[3],did not affect
same,mitochondrial localization by immunocytochemical staining (MitoTracker),[4],targeted exclusively to mitochondria
